Publication PMC2900196

Assays:
[1] = biological target: Grass carp reovirus (GCRV) turret protein VP1 (Grass carp reovirus (GCRV)); assay: cryo-EM structure
[2] = biological target: Grass carp reovirus (GCRV) inner capsid shell protein VP3 (Grass carp reovirus (GCRV)); assay: cryo-EM structure

**Q.** “Grass carp reovirus (GCRV) turret protein VP1 (natural protein)” was tested. Which stoichiometry N [1] did it give?
**A.** 5

**Q.** “Grass carp reovirus (GCRV) inner capsid shell protein VP3 (natural protein)” was tested. Which stoichiometry N [2] did it give?
**A.** 120
